Data taken from publication PMC7610145, “Transglutaminase-Mediated Cross-Linking of Tropoelastin to Fibrillin Stabilises the Elastin Precursor Prior to Elastic Fibre Assembly” (Journal of Molecular Biology, 2020).

How the values were obtained:
Details in all cases: both partners purified
[1] = target: T1, tropoelastin, SHELΔ26A (Synthetic Human Elastin without domain 26A) (human, UniProt P15502-2 27-724); test: SEC-MALS; TG2 cross-linked complex eluting at ~10 ml, 0.5 mg/ml, Superose 6, 10 mM Tris–HCl (pH 7.4), 150 mM NaCl
T1 construct: human tropoelastin without domain 26A; residues 27–724, the 60 kDa mature form of the secreted protein following removal of the signal peptide; the precursor counted on has 724 residues (isoform lacking domain 26A); contains K38 in domain 4; also called TE; full-length TE; source: expressed in bacteria, purified as described previously [23]
T1 sequence (looked up): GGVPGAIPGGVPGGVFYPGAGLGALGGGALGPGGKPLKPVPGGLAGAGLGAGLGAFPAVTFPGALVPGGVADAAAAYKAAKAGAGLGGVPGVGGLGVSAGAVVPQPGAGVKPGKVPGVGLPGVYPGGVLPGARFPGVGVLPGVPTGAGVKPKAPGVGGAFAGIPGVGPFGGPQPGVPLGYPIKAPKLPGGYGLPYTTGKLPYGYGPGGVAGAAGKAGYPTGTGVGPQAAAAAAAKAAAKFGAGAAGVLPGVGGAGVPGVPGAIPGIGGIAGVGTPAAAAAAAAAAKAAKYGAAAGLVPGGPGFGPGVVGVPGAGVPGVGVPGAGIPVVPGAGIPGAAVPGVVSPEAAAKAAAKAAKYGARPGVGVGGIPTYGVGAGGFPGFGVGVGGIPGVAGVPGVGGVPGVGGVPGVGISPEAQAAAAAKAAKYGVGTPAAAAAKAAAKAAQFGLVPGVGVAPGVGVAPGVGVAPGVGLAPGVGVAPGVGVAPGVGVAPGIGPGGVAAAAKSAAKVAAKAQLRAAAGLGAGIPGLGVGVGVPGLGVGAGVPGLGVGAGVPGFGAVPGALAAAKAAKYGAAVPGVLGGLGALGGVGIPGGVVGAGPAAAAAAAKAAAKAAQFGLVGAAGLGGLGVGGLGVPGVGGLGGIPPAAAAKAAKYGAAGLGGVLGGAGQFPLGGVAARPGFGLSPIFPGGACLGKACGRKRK

[2] = target: T1, tropoelastin, SHELΔ26A (Synthetic Human …); test: SEC; PF2 and TE incubated with TG2 at a 1:1 ratio, separated on a Superose 6 column in 10 mM Hepes, 500 mM NaCl, 1 mM CaCl2 (pH 7.4); fractions on SDS-PAGE
[3] = target: T1, tropoelastin, SHELΔ26A (Synthetic Human …); test: cross-linking; PF2 and TE incubated alone or together (1:1 or 2:1) at 16 °C for 2 h in 10 mM Hepes, 500 mM NaCl, 1 mM CaCl2 (pH 7.4), then with or without TG2 from guinea pig liver for a further 4 h; read by SDS-PAGE

stoichiometry N [1]: ~1 PF2:TE
stoichiometry of the larger species [2]: 2 copies of each (2:2)
stoichiometry N [3]: 1 PF2:TE
B1: fibrillin-1 PF2 fragment (domains TB1 to TB2, encoded by exons 9–17), natively glycosylated (domain or fragment)
chain: not shown
modifications: N-linked glycan at N448
notes: fibrillin-1, fragment encompassing domains TB1 to TB2, encoded by exons 9–17; includes Q669 (TB2); SAXS data on PF2, TE and the complex are deposited in the SASDB (SAS2517, 2518, 2519); also called fibrillin PF2; fibrillin PF2 construct
